Source: US20110150771A1

Tests used:
Test in all cases: cell-based or functional assay
[1] = target: DEN2 E protein of chimeric WN/DEN2 virus, C6-1 seed (Dengue virus type 2, strain 16681 (in a West Nile NY99 backbone)) (UniProt P29990)
[2] = target: DEN2 E protein of chimeric WN/DEN2 virus, C6-1/V-2 seed (E-N203D) (Dengue virus type 2, strain 16681 (in a West Nile NY99 backbone)) (UniProt P29990)
[3] = target: DEN2 E protein of chimeric WN/DEN2 virus, V-10 seed (E-K122I/K mixed, E-S186F, E-N203D) (Dengue virus type 2, strain 16681 (in a West Nile NY99 backbone)) (UniProt P29990)
[4] = target: DEN2 E protein of chimeric WN/DEN2 virus, V-3 seed (E-N203D; NS2A-I49T and NS2A-F94L elsewhere in the virus) (Dengue virus type 2, strain 16681 (in a West Nile NY99 backbone)) (UniProt P29990)
[5] = target: E protein of wild type West Nile virus NY99 (West Nile virus, strain NY99) (UniProt Q9Q6P4); settings: scale: greatest antibody dilution that decreased plaques by at least 50%

“DENV-2 E protein-specific monoclonal antibody (MAb3H5)” was tested. Which PRNT50 Titer [1] did it give?
Its PRNT50 Titer is > 2560.

What about the PRNT50 Titer [2] of the same substance?
Its PRNT50 Titer is > 2560.

What about the PRNT50 Titer [3] of the same substance?
The PRNT50 Titer was > 2560.

What about the PRNT50 Titer [4] of the same substance?
Its PRNT50 Titer is > 2560.

And the PRNT50 Titer [5]?
Its PRNT50 Titer is < 80.

How did the PRNT50 Titer [1] turn out when “WNV E protein-specific monoclonal antibody (MAb3.67G)” was run?
The PRNT50 Titer was < 1280.

What about the PRNT50 Titer [2] of the same substance?
The PRNT50 Titer was < 1280.

What about the PRNT50 Titer [3] of the same substance?
Its PRNT50 Titer is < 1280.

What about the PRNT50 Titer [4] of the same substance?
Its PRNT50 Titer is < 1280.

And the PRNT50 Titer [5]?
The PRNT50 Titer was > 41000.
